From US20190062420A1 (Janssen / Centocor, published 2019)

T1: human FcγRIIB (NM_004001) expressed on cells (human, UniProt P31994 43-310)
T1 construct: Transiently expressed on Expi293F cells; also called Expi293F FcγRIIB; HEK293F cells expressing FcγRIIB
T1 sequence: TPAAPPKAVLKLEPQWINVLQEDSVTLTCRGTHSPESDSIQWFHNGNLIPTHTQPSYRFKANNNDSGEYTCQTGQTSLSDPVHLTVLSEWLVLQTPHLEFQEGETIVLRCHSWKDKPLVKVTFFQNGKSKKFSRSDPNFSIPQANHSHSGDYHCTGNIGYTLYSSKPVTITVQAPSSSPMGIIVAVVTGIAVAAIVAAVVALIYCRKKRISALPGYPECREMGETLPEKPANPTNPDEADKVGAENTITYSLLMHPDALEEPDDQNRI

T2: FcγRIIA protein (human, UniProt P12318 36-217, biotinylated (SureLINK Biotin Kit) in the ELISA of Example 1)
T2 construct: Soluble/recombinant antigen used in ELISA; also called bt-FcγRIIA; recombinant FcγRIIA protein
T2 sequence: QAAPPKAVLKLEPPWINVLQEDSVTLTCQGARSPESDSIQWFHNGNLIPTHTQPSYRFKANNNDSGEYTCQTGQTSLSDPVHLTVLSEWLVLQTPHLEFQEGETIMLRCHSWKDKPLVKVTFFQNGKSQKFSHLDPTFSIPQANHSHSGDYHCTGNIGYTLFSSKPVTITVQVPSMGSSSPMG


Legend:
[1] = target: T1, human FcγRIIB (NM_004001) expressed on …; test: flow cytometry; Raji cells (express predominantly FcγRIIB)
[2] = target: T1, human FcγRIIB (NM_004001) expressed on …; test: flow cytometry; Expi293F cells transfected with FcγRIIB
Experimental: (§1) Plasmids expressing cDNAs encoding human FcγRI (NM_000566) (SEQ ID NO: 44), FcγRIIA (NM_021642) (SEQ ID NO: 2), FcγRIIB (NM_004001) (SEQ ID NO: 3), and FcγRIIIA (NM_000569) (SEQ ID NO: 45) (Origene) were transiently transfected into Expi293F cells by ExpiFectamine293 transfection kit (Life Technologies). Flow cytometry assays were performed 48 h after transfection.
(§2) 2×10⁵ cells per well were seeded in 96-well plate and blocked in BSA Stain Buffer (BD Biosciences, San Jose, USA) for 30 min at 4° C. Cells were incubated with test mAbtyrin on ice for 1.5 h at 4° C. After being washed twice with BSA stain buffer, the cells were incubated with R-PE labeled anti-human or anti-mouse IgG secondary antibody (Jackson Immunoresearch Laboratories) for 45 min at 4° C. The cells were washed twice in stain buffer and then resuspended in 150 μL of Stain Buffer containing 1:200 diluted DRAQ7 live/dead stain (Cell Signaling Technology, Danvers, USA). PE and DRAQ7 signals of the stained cells were detected by Miltenyi MACSQuant flow cytometer (Miltenyi Biotec, Auburn, USA) using B2 and B4 channel respectively. Live cells were gated on DRAQ7 exclusion and the geometric mean fluorescence signals were determined for at least 10,000 live events collected. FlowJo software (Tree Star) was used for analysis. Data was plotted as the logarithm of antibody concentration versus mean fluorescence signals. Nonlinear regression analysis was performed by GraphPad Prism 6 (GraphPad Software, Inc.) and EC₅₀ values were calculated.

[3] = target: T3, human FcγRIIIA (NM_000569) expressed on cells (human, UniProt P08637 17-254); test: flow cytometry; Expi293F cells transfected with FcγRIIIA
T3 construct: Transiently expressed on Expi293F cells; also used here for FcγRIIIA on the engineered effector cells of the ADCC reporter bioassay (Promega); also called FcγIIIA
T3 sequence (P08637 17-254 limits assumed): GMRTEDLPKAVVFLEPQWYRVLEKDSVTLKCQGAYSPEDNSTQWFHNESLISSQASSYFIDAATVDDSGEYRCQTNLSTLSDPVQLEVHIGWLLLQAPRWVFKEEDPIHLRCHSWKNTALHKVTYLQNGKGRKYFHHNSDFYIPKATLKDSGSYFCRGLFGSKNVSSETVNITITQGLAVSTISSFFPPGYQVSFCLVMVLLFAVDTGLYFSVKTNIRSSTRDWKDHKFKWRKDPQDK
Experimental: as §1, §2

[4] = target: T1, human FcγRIIB (NM_004001) expressed on …; test: flow cytometry; Raji cells (express predominantly FcγRIIB); remark: listed apart in the source
Experimental: as §2
Raji cell is a cell line derived from B cells that express predominantly FcγRIIB. The binding of mAbtyrins on Raji cells were investigated by flow cytometry assay described for testing mAbtyrin binding to FcγR. Binding of the mAbtyrins were detected by flow cytometry using a PE-labeled Goat F(ab′) against Human IgG(γ).

FcγRIIA protein = target: T2, FcγRIIA protein; test: ELISA; FcγRIIA protein coated on plate, anti-human IgG-HRP detection
Experimental: Effect of the mAbtyrins on T cell activation was evaluated. Briefly, recombinant FcγRIIB or FcγRIIA protein was coated on the plate to provide the crosslinking activity. For T cell activation assay, 100 μL of 30 ng/mL anti-CD3 antibody (OKT3) and 1 μg/mL FcγRIIB or FcγRIIA protein in DPBS were coated in U-bottomed 96-well tissue culture plate overnight. CD4 positive T cells were isolated from PBMC by negative selection. OX40 expression was induced by culturing the isolated T cells in the presence of 1 μg/mL PHA overnight. On the assay day, the coating solution in the plate were aspirated and 150 μL RPMI media was added to block the plate. The cultured T cells were washed three times by RPMI culture media and between 25,000 to 50,000 CD4 positive T cells were seeded in each well in the assay plate. Test mAbtyrins were added to the cells and the plate was incubated for 3 days. T cell activation was assessed by the induction of IFNγ or TNFα production, which was quantitated by human IFNγ or TNFα ELISA detection kit (Biolegend). Prior to T cell activation assay, the binding affinity of mAbtyrins to immobilized FcγRIIB or FcγRIIA protein were evaluated by an ELISA assay. […] The binding of mAbtyrins to immobilized FcγRIIB or FcγRIIA protein were detected by HRP-conjugated anti-Human IgG(γ) secondary antibody and quantitated by ELISA assay using TMB substrate.

fold binding signal over OX40SF2IgG2sigma at 10 µg/mL [1] [fold] | EC50 [2] [µg/mL] | EC50 [3] [µg/mL] | EC50 [4] [µg/mL] | binding result (FcγRIIA protein) | Binder
≥ 6 | 1.52 | > 10 | 1.44 | – | OX40SF2IgG2sigma_R2BS29_HC-C (bispecific antibody, mAbtyrin: anti-OX40 antibody OX40SF2, effector silent IgG2sigma, with linker and R2BS29 FN3 domain at the C-terminus of the heavy chain; also called mAbtyrin) heavy: QVQLVQSGAEVKKPGSSVKVSCKASGYTFKDYTMHWVRQAPGQGLEWIGGIYPNNGGSTYNQNFKDRVTLTADKSTSTAYMELSSLRSEDTAVYYCARMGYHGPHLDFDVWGQGTTVTVSSASTKGPSVFPLAPCSRSTSESTAALGCLVKDYFPEPVTVSWNSGALTSGVHTFPAVLQSSGLYSLSSVVTVPSSNFGTQTYTCNVDHKPSNTKVDKTVERKCCVECPPCPAPPAAASSVFLFPPKPKDTLMISRTPEVTCVVVDVSAEDPEVQFNWYVDGVEVHNAKTKPREEQFNSTFRVVSVLTVLHQDWLNGKEYKCKVSNKGLPSSIEKTISKTKGQPREPQVYTLPPSREEMTKNQVSLTCLVKGFYPSDIAVEWESNGQPENNYKTTPPMLDSDGSFFLYSKLTVDKSRWQQGNVFSCSVMHEALHNHYTQKSLSLSPGKGGGGGSGGGGSGGGGSGGGGSLPAPKNLVVSRVTEDSARLSWTAPDAAFDSFPIYYWEYRVGGEAIVLTVPGSERSYDLTGLKPGTEYFVYINGVKGGEESRPLSAIFTT light: DIQMTQSPSSLSASVGDRVTITCKASQDVGAAVAWYQQKPGKAPKLLIYWASTRHTGVPSRFSGSGSGTDFTLTISSLQPEDFATYYCQQYINYPLTFGGGTKVEIKRTVAAPSVFIFPPSDEQLKSGTASVVCLLNNFYPREAKVQWKVDNALQSGNSQESVTEQDSKDSTYSLSSTLTLSKADYEKHKVYACEVTHQGLSSPVTKSFNRGEC
– | – | – | > 10 | no binding | OX40SF2IgG2sigma (antibody, Anti-OX40 antibody, IgG2 sigma isotype (effector silent Fc: V234A, G237A, P238S, H268A, V309L, A330S, P331S against wild type IgG2); control without FN3 domain; also called parental antibody; parental OX40 antibody) heavy: QVQLVQSGAEVKKPGSSVKVSCKASGYTFKDYTMHWVRQAPGQGLEWIGGIYPNNGGSTYNQNFKDRVTLTADKSTSTAYMELSSLRSEDTAVYYCARMGYHGPHLDFDVWGQGTTVTVSSASTKGPSVFPLAPCSRSTSESTAALGCLVKDYFPEPVTVSWNSGALTSGVHTFPAVLQSSGLYSLSSVVTVPSSNFGTQTYTCNVDHKPSNTKVDKTVERKCCVECPPCPAPPAAASSVFLFPPKPKDTLMISRTPEVTCVVVDVSAEDPEVQFNWYVDGVEVHNAKTKPREEQFNSTFRVVSVLTVLHQDWLNGKEYKCKVSNKGLPSSIEKTISKTKGQPREPQVYTLPPSREEMTKNQVSLTCLVKGFYPSDIAVEWESNGQPENNYKTTPPMLDSDGSFFLYSKLTVDKSRWQQGNVFSCSVMHEALHNHYTQKSLSLSPGK light: DIQMTQSPSSLSASVGDRVTITCKASQDVGAAVAWYQQKPGKAPKLLIYWASTRHTGVPSRFSGSGSGTDFTLTISSLQPEDFATYYCQQYINYPLTFGGGTKVEIKRTVAAPSVFIFPPSDEQLKSGTASVVCLLNNFYPREAKVQWKVDNALQSGNSQESVTEQDSKDSTYSLSSTLTLSKADYEKHKVYACEVTHQGLSSPVTKSFNRGEC
– | – | 0.339 | – | – | OX40SF2IgG1 (antibody, Anti-OX40 antibody, wild-type IgG1; control without FN3 domain) heavy: not shown light: DIQMTQSPSSLSASVGDRVTITCKASQDVGAAVAWYQQKPGKAPKLLIYWASTRHTGVPSRFSGSGSGTDFTLTISSLQPEDFATYYCQQYINYPLTFGGGTKVEIKRTVAAPSVFIFPPSDEQLKSGTASVVCLLNNFYPREAKVQWKVDNALQSGNSQESVTEQDSKDSTYSLSSTLTLSKADYEKHKVYACEVTHQGLSSPVTKSFNRGEC
